In patent US20130130268A1 (published 2013):

B1: Vlambda16F4 rHumaab (antibody, human IgG1, V domains shown)
VH: GLVKPLETLSLTCSVSGGSVSDGSYFWNWIRQPPGKGLEWIGYAYSRGTTNYSPSLKGRITISVDKSKNQISLKLTSVTPADTAVYYCARDSFEIWGQGTMVTV
VL: QSALTQPASVSGSPGQSITISCTGTSSDVGGYNYVSWYQHHPGKAPKLMIYEVSHRPSGVSNRFSGSKSGNTASLTISGLQAEDEADYYCSSYTSSSHVVFGGGTKLTVL
notes: Tested as a whole human IgG1 made in CHO cells (pDR12 vector, b12 constant regions, with Fc)
B2: Vk13B8 rHumaab (antibody, human IgG1, V domains shown)
VH: B1 VH
VL: DIQMTQSPSSLSASVGDRVTITCRASQGISNYLAWFQQKPGKAPKSLIYAASSLQSGVPSKFSGSGSGTDFTLTISSLQPEDFATYYCQQYNSFPYTFGQGTKLEIK
notes: Tested as a whole human IgG1 made in CHO cells (pDR12 vector, constant regions of antibody b12, with Fc); also called Vκ13B8; recombinant human monoclonal auto-antibody Vk13B8
B3: Vk16F4 rHumaab (antibody, human IgG1, V domains shown)
VH: B1 VH
VL: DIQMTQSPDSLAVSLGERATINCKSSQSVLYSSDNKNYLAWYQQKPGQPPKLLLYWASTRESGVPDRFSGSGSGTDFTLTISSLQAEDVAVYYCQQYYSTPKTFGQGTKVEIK
notes: Tested as a whole human IgG1 made in CHO cells (pDR12 vector, b12 constant regions, with Fc); also called Vκ16F4; rHumaab VK16F4
B4: human PDGF-BB (ligand)
chain 1: SLGSLTIAEPAMIAECKTRTEVFEISRRLIDRTNANFLVWPPCVEVQRCSGCCNNRNVQCRPTQVQLRPVQVRKIEIVRKKPIFKKATVTLEDHLACKCETVAAARPVT
chain 2: B4 chain 1
notes: The name BB means a homodimer of B chains

Biological target: T1, His-tagged PDGFR alpha (aminoacids 1-834 of human PDGFR alpha fused to a 6×histidine tag) (human, UniProt P16234 24-834)
T1 construct: Complete extracellular and transmembrane regions plus part of the intracellular domain; Expressed in HeLa cells, purified from lysates and immobilized on the IAsys biosensor; The cDNA encodes residues 1-834; also called immobilized His-tagged PDGFR alpha; truncated conformer of PDGFR alpha
Assay: IAsys optical biosensor, immobilized His-tagged PDGFR alpha
Protocol: A detailed characterization of rHumaab interaction with human PDGFR alpha was performed on an optical biosensor, using as a molecular bait a homemade truncated conformer of this receptor containing the complete extracellular and transmembrane regions joined to a poly-histidine tail (HIS tag) replacing part of the intracellular domain, and serving both as an anchor to the biosensor surface and as a spacer. Preservation of proper folding of the immobilized receptor into a naive-like conformation was verified by monitoring the interaction with its natural binding partner (PDGF-BB) and with two mouse monoclonal antibodies specific for conformational PDGFR alpha epitopes (FIG. 6a). Using this approach, both kinetics and equilibrium parameters of the interaction between PDGF-BB, each rHumaab and PDGFR alpha were determined. […] Additionally, the analysis of association and dissociation rate constants for soluble ligands binding to PDGFR alpha, further defined the mechanistic properties of the macromolecular recognition process. […] Conversely, differences in equilibrium constants among rHumaab were reflected by corresponding differences in dissociation rate constants (kdiss=, 0.035 s⁻¹, 0.02 s⁻¹, and 0.003 s⁻¹, respectively for Vk13B8, Vk16F4 and Vlambda16F4).

T1 sequence (P16234 other isoform, or with tags, fused parts or gaps): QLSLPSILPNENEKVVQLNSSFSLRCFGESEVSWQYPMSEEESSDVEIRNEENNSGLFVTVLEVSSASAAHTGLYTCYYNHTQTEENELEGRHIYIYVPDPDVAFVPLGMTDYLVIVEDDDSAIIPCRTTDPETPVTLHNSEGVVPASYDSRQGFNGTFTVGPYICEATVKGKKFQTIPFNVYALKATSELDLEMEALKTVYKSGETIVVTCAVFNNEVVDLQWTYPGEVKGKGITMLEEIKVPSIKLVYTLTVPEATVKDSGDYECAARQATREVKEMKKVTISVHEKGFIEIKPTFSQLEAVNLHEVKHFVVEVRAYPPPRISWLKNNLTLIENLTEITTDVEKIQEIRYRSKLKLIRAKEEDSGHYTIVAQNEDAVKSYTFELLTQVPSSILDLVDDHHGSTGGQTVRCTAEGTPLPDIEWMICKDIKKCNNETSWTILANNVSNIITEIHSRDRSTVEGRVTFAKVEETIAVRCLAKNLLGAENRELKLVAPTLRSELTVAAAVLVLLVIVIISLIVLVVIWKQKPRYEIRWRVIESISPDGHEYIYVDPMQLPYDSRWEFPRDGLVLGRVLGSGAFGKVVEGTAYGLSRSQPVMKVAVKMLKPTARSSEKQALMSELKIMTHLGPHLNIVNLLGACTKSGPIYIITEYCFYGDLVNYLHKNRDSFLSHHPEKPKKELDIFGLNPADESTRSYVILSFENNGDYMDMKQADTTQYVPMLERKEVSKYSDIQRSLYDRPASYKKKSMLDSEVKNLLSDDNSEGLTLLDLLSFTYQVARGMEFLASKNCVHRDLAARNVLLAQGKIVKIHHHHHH

Binder | Kd | koff | kon
B1 | 16.6 nM | 0.003 s⁻¹ | 
B2 | 184 nM | 0.035 s⁻¹ | 
B3 | 71.4 nM | 0.02 s⁻¹ | 
B4 | 0.23 nM |  | 3e+07 M⁻¹ s⁻¹
